Measured values as given in CN113501872A (INST PATHOGEN BIOLOGY CAMS, dated 2021).

Target: SARS-CoV-2刺突蛋白RBD区重组蛋白 (SARS-CoV-2, UniProt P0DTC2 319-541)
Test: indirect ELISA, RBD protein coated, Fab supernatant

B1: 人源抗SARS-CoV-2病毒Fab抗体SK1 (Fab, V domains shown)
VH: EVQLVESGGGLVQPGRSLRLSCAASGFIFDDYAMHWVRQAPGKGLEWVSGISWNSGTIGYADSVKGRFIISRDNAKNSLYLQLNRLGVEDTALYYCVKDIYYRDRNLGFAFDIWGQGTMVTVSS
VL: DIQLTQSPSSLSASIGDTVTITCRASQSIDNYLHWYQKKPGIAPKLLISATSTLENGVPSRFSGSRSGTDFTLTISSLQIEDFATYYCQQGHSVPLTFGGGTKLEVR
notes: also called SK1 Fab
**Q.** Does B1 bind?
**A.** binds
